Patent US20040010124A1 (MacroGenics, published 2004)

Molecular target: T1, soluble form of human CD16A (sCD16A) (human, UniProt P08637 17-203)
T1 construct: CD16A gene truncated just prior to the transmembrane region, expressed in HEK-293; The last seven residues come from vector pCDNA3.1; also called sFcRIIIa
Assay: ELISA, sCD16A captured by mAb LNK-16
Method: The plate was washed and dilutions of recombinant antibodies starting at 0.5 μg/ml in PBS-T-BSA were then added and incubated for 1 hr at room temp. […] After stopping color development using dilute sulfuric acid, the plate was read at 450 nm.

T1 sequence (P08637 other isoform, or with tags, fused parts or gaps limits assumed): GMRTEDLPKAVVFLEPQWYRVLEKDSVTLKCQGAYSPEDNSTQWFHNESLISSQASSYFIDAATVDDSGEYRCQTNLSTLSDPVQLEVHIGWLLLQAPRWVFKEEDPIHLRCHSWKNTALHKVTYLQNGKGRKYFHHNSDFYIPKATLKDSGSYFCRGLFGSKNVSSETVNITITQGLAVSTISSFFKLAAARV

Binder | binding result
hu3G8VH-3/hu3G8VL-1 (antibody, V domains shown, Human Cγ1/Cκ constant regions; HEK-293) VH: QVTLRESGPALVKPTQTLTLTCTFSGFSLRTSGMGVGWIRQPPGKALEWLAHIWWDDDKRYNPALKSRLTISKDTSKNQVVLTMTNMDPVDTATYYCARINPAWFAYWGQGTLVTVSS VL: DIVMTQSPDSLAVSLGERATINCKASQSVDFDGDSFMNWYQQKPGQPPKLLIYTTSNLESGVPDRFSGSGSGTDFTLTISSLQAEDVAVYYCQQSNEDPYTFGQGTKLEIK | binds
hu3G8VH-30/hu3G8VL-1 (antibody, V domains shown, Human Cγ1/Cκ constant regions; HEK-293) VH: QVTLRESGPALVKPTQTLTLTCTFSGFSLSTSGVGVGWIRQPPGKALEWLAHIWWDDDKRYSPSLKSRLTISKDTSKNQVVLTMTNMDPVDTATYYCAQINPAYFDYWGQGTLVTVSS VL: DIVMTQSPDSLAVSLGERATINCKASQSVDFDGDSFMNWYQQKPGQPPKLLIYTTSNLESGVPDRFSGSGSGTDFTLTISSLQAEDVAVYYCQQSNEDPYTFGQGTKLEIK | binds
hu3G8VH-23/hu3G8VL-1 (antibody, V domains shown, Human Cγ1/Cκ constant regions; HEK-293) VH: QVTLRESGPALVKPTQTLTLTCTFSGFSLSTSGVGVGWIRQPPGKALEWLAHIWWDDDKRYSPSLKSRLTISKDTSKNQVVLTMTNMDPVDTATYYCAKINPAYFAYWGQGTLVTVSS VL: DIVMTQSPDSLAVSLGERATINCKASQSVDFDGDSFMNWYQQKPGQPPKLLIYTTSNLESGVPDRFSGSGSGTDFTLTISSLQAEDVAVYYCQQSNEDPYTFGQGTKLEIK | binds
hu3G8VH-8/hu3G8VL-1 (antibody, V domains shown, Human Cγ1/Cκ constant regions; HEK-293) VH: QVTLRESGPALVKPTQTLTLTCTFSGFSLSTSGMGVGWIRQPPGKALEWLAHIWWDDDKRYNPALKSRLTISKDTSKNQVVLTMTNMDPVDTATYYCARINPAYFAYWGQGTLVTVSS VL: DIVMTQSPDSLAVSLGERATINCKASQSVDFDGDSFMNWYQQKPGQPPKLLIYTTSNLESGVPDRFSGSGSGTDFTLTISSLQAEDVAVYYCQQSNEDPYTFGQGTKLEIK | binds
hu3G8VH-24/hu3G8VL-1 (antibody, V domains shown, Human Cγ1/Cκ constant regions; HEK-293) VH: QVTLRESGPALVKPTQTLTLTCTFSGFSLSTSGVGVGWIRQPPGKALEWLAHIWWDDDKRYSPSLKSRLTISKDTSKNQVVLTMTNMDPVDTATYYCAAINPAYFAYWGQGTLVTVSS VL: DIVMTQSPDSLAVSLGERATINCKASQSVDFDGDSFMNWYQQKPGQPPKLLIYTTSNLESGVPDRFSGSGSGTDFTLTISSLQAEDVAVYYCQQSNEDPYTFGQGTKLEIK | binds
hu3G8VH-6/hu3G8VL-1 (antibody, V domains shown, Human Cγ1/Cκ constant regions; HEK-293) VH: QVTLRESGPALVKPTQTLTLTCTFSGFSLSTSGVGVGWIRQPPGKALEWLAHIWWDDDKRYNPALKSRLTISKDTSKNQVVLTMTNMDPVDTATYYCARINPAWFDYWGQGTLVTVSS VL: DIVMTQSPDSLAVSLGERATINCKASQSVDFDGDSFMNWYQQKPGQPPKLLIYTTSNLESGVPDRFSGSGSGTDFTLTISSLQAEDVAVYYCQQSNEDPYTFGQGTKLEIK | binds
hu3G8VH-27/hu3G8VL-1 (antibody, V domains shown, Human Cγ1/Cκ constant regions; HEK-293) VH: QVTLRESGPALVKPTQTLTLTCTFSGFSLSTSGVGVGWIRQPPGKALEWLAHIWWDDDKRYSPSLKSRLTISKDTSKNQVVLTMTNMDPVDTATYYCAKINPAYFDYWGQGTLVTVSS VL: DIVMTQSPDSLAVSLGERATINCKASQSVDFDGDSFMNWYQQKPGQPPKLLIYTTSNLESGVPDRFSGSGSGTDFTLTISSLQAEDVAVYYCQQSNEDPYTFGQGTKLEIK | binds
hu3G8VH-37/hu3G8VL-1 (antibody, V domains shown, Human Cγ1/Cκ constant regions; HEK-293) VH: QITLKESGPTLVKPTQTLTLTCTFSGFSLSTSGVGVGWIRQPPGKALEWLALIWWDDDKRYSPSLKSRLTISKDTSKNQVVLTMTNMDPVDTATYYCAKINPAYFAYWGQGTLVTVSS VL: DIVMTQSPDSLAVSLGERATINCKASQSVDFDGDSFMNWYQQKPGQPPKLLIYTTSNLESGVPDRFSGSGSGTDFTLTISSLQAEDVAVYYCQQSNEDPYTFGQGTKLEIK | binds
hu3G8VH-36/hu3G8VL-1 (antibody, V domains shown, Human Cγ1/Cκ constant regions; HEK-293) VH: QITLKESGPTLVKPTQTLTLTCTFSGFSLSTSGVGVGWIRQPPGKALEWLALIWWDDDKRYSPSLKSRLTISKDTSKNQVVLTMTNMDPVDTATYYCAQINPAYFDYWGQGTLVTVSS VL: DIVMTQSPDSLAVSLGERATINCKASQSVDFDGDSFMNWYQQKPGQPPKLLIYTTSNLESGVPDRFSGSGSGTDFTLTISSLQAEDVAVYYCQQSNEDPYTFGQGTKLEIK | binds
hu3G8VH-14/hu3G8VL-1 (antibody, V domains shown, Human Cγ1/Cκ constant regions; HEK-293) VH: QVTLRESGPALVKPTQTLTLTCTFSGFSLSTSGMGVGWIRQPPGKALEWLAHIWWNDDKRYNPALKSRLTISKDTSKNQVVLTMTNMDPVDTATYYCARINPAWFAYWGQGTLVTVSS VL: DIVMTQSPDSLAVSLGERATINCKASQSVDFDGDSFMNWYQQKPGQPPKLLIYTTSNLESGVPDRFSGSGSGTDFTLTISSLQAEDVAVYYCQQSNEDPYTFGQGTKLEIK | binds
hu3G8VH-4/hu3G8VL-1 (antibody, V domains shown, Human Cγ1/Cκ constant regions; HEK-293) VH: QVTLRESGPALVKPTQTLTLTCTFSGFSLSTSGMGVGWIRQPPGKALEWLAHIWWDDDKRYNPALKSRLTISKDTSKNQVVLTMTNMDPVDTATYYCAQINPAWFDYWGQGTLVTVSS VL: DIVMTQSPDSLAVSLGERATINCKASQSVDFDGDSFMNWYQQKPGQPPKLLIYTTSNLESGVPDRFSGSGSGTDFTLTISSLQAEDVAVYYCQQSNEDPYTFGQGTKLEIK | binds
hu3G8VH-28/hu3G8VL-1 (antibody, V domains shown, Human Cγ1/Cκ constant regions; HEK-293) VH: QVTLRESGPALVKPTQTLTLTCTFSGFSLSTSGVGVGWIRQPPGKALEWLAHIWWDDDKRYSPSLKSRLTISKDTSKNQVVLTMTNMDPVDTATYYCAAINPAYFDYWGQGTLVTVSS VL: DIVMTQSPDSLAVSLGERATINCKASQSVDFDGDSFMNWYQQKPGQPPKLLIYTTSNLESGVPDRFSGSGSGTDFTLTISSLQAEDVAVYYCQQSNEDPYTFGQGTKLEIK | binds
hu3G8VH-16/hu3G8VL-1 (antibody, V domains shown, Human Cγ1/Cκ constant regions; HEK-293) VH: QVTLRESGPALVKPTQTLTLTCTFSGFSLSTSGMGVGWIRQPPGKALEWLAHIWWDDDKRYNPALKSRLTISKDTSKNQVVLTMTNMDPVDTATYYCAKINPAWFAYWGQGTLVTVSS VL: DIVMTQSPDSLAVSLGERATINCKASQSVDFDGDSFMNWYQQKPGQPPKLLIYTTSNLESGVPDRFSGSGSGTDFTLTISSLQAEDVAVYYCQQSNEDPYTFGQGTKLEIK | binds
hu3G8VH-29/hu3G8VL-1 (antibody, V domains shown, Human Cγ1/Cκ constant regions; HEK-293) VH: QVTLRESGPALVKPTQTLTLTCTFSGFSLSTSGVGVGWIRQPPGKALEWLAHIWWDDDKRYSPSLKSRLTISKDTSKNQVVLTMTNMDPVDTATYYCAHINPAYFDYWGQGTLVTVSS VL: DIVMTQSPDSLAVSLGERATINCKASQSVDFDGDSFMNWYQQKPGQPPKLLIYTTSNLESGVPDRFSGSGSGTDFTLTISSLQAEDVAVYYCQQSNEDPYTFGQGTKLEIK | binds

More lines, now with the values ahead:

binding result | Binder
binds | hu3G8VH-18/hu3G8VL-1 (antibody, V domains shown, Human Cγ1/Cκ constant regions; HEK-293) VH: QVTLRESGPALVKPTQTLTLTCTFSGFSLSTSGMGVGWIRQPPGKALEWLAHIWWDDDKRYNPALKSRLTISKDTSKNQVVLTMTNMDPVDTATYYCAHINPAWFAYWGQGTLVTVSS VL: DIVMTQSPDSLAVSLGERATINCKASQSVDFDGDSFMNWYQQKPGQPPKLLIYTTSNLESGVPDRFSGSGSGTDFTLTISSLQAEDVAVYYCQQSNEDPYTFGQGTKLEIK
binds | hu3G8VH-12/hu3G8VL-1 (antibody, V domains shown, Human Cγ1/Cκ constant regions; HEK-293) VH: QVTLRESGPALVKPTQTLTLTCTFSGFSLSTSGMGVGWIRQPPGKALEWLAHIWWDDDKRYSPSLKSRLTISKDTSKNQVVLTMTNMDPVDTATYYCARINPAWFAYWGQGTLVTVSS VL: DIVMTQSPDSLAVSLGERATINCKASQSVDFDGDSFMNWYQQKPGQPPKLLIYTTSNLESGVPDRFSGSGSGTDFTLTISSLQAEDVAVYYCQQSNEDPYTFGQGTKLEIK
binds | hu3G8VH-25/hu3G8VL-1 (antibody, V domains shown, Human Cγ1/Cκ constant regions; HEK-293) VH: QVTLRESGPALVKPTQTLTLTCTFSGFSLSTSGVGVGWIRQPPGKALEWLAHIWWDDDKRYSPSLKSRLTISKDTSKNQVVLTMTNMDPVDTATYYCAHINPAYFAYWGQGTLVTVSS VL: DIVMTQSPDSLAVSLGERATINCKASQSVDFDGDSFMNWYQQKPGQPPKLLIYTTSNLESGVPDRFSGSGSGTDFTLTISSLQAEDVAVYYCQQSNEDPYTFGQGTKLEIK
binds | hu3G8VH-17/hu3G8VL-1 (antibody, V domains shown, Human Cγ1/Cκ constant regions; HEK-293) VH: QVTLRESGPALVKPTQTLTLTCTFSGFSLSTSGMGVGWIRQPPGKALEWLAHIWWDDDKRYNPALKSRLTISKDTSKNQVVLTMTNMDPVDTATYYCAAINPAWFAYWGQGTLVTVSS VL: DIVMTQSPDSLAVSLGERATINCKASQSVDFDGDSFMNWYQQKPGQPPKLLIYTTSNLESGVPDRFSGSGSGTDFTLTISSLQAEDVAVYYCQQSNEDPYTFGQGTKLEIK
binds | hu3G8VH-5/hu3G8VL-1 (antibody, V domains shown, Human Cγ1/Cκ constant regions; HEK-293; also called Hu3G8-5.1; h3G8 5.1) VH: QVTLRESGPALVKPTQTLTLTCTFSGFSLSTSGMGVGWIRQPPGKALEWLAHIWWDDDKRYNPALKSRLTISKDTSKNQVVLTMTNMDPVDTATYYCAQINPAWFAYWGQGTLVTVSS VL: DIVMTQSPDSLAVSLGERATINCKASQSVDFDGDSFMNWYQQKPGQPPKLLIYTTSNLESGVPDRFSGSGSGTDFTLTISSLQAEDVAVYYCQQSNEDPYTFGQGTKLEIK
binds | hu3G8VH-19/hu3G8VL-1 (antibody, V domains shown, Human Cγ1/Cκ constant regions; HEK-293) VH: QVTLRESGPALVKPTQTLTLTCTFSGFSLSTSGMGVGWIRQPPGKALEWLAHIWWDDDKRYNPALKSRLTISKDTSKNQVVLTMTNMDPVDTATYYCAQINPAYFAYWGQGTLVTVSS VL: DIVMTQSPDSLAVSLGERATINCKASQSVDFDGDSFMNWYQQKPGQPPKLLIYTTSNLESGVPDRFSGSGSGTDFTLTISSLQAEDVAVYYCQQSNEDPYTFGQGTKLEIK
binds | hu3G8VH-1/hu3G8VL-1 (antibody, human IgG1, kappa, HEK-293; also called Hu3G8-1.1) heavy: not shown light: DIVMTQSPDSLAVSLGERATINCKASQSVDFDGDSFMNWYQQKPGQPPKLLIYTTSNLESGVPDRFSGSGSGTDFTLTISSLQAEDVAVYYCQQSNEDPYTFGQGTKLEIKRTVAAPSVFIFPPSDEQLKSGTASVVCLLNNFYPREAKVQWKVDNALQSGNSQESVTEQDSKDSTYSLSSTLTLSKADYEKHKVYACEVTHQGLSSPVTKSFNRGEC
